Test: soluble on expression in E. coli; label from the status in PepcDB or PDB records
With “MSLSQPQPPSRLLVMKFGGTNMQSAHAIRHSASLAGRSVREGVKVVVVVSAMAGVTNGLLHLADAAQSGDIARANDEIAALRTRHFTAAQELGAAPDSETVRELRELHETLRQAVYGVYLLRELTPRSRDLIVAFGERLSAPLMSLALEQSGLRARHLTGGEAGILTDTNFGNARPLPGTYERVGDRLSGFLSAGVTPVIAGFMGETEQGAITTLGRGGTDFSATIVGKALGADEVWAWKDVDGVMSADPRVVGDASNIGVLSYGEVMELAYFGAKVLHPLAVTPLQDSGIPLRVKSAADPDFAGTLVRSQAEEIPGRPVKAVTAIKNVSLLTVTGAGVLGVPEVIASVFTAIARENITLLMVSQSSSMSNVSLAVPSADAARALQALRAGLSSELNVEETNGVAVLAIVGSGMRGQQGVSARLFTALASEDINILMISQGSSELNISVALSGEEVDRATAAVHAAFTLSQPEGHHHHHH” the “soluble on expression in E. coli” value was “not soluble”. In the case of “MATVGGAFKDSLTQAQKDELHQIALKIVQDGKGILAADESTGTIGKRLDAINLENNETNRQKYRQLLFTTPNLNQHISGVILYEETFHQSTDKGEKFTDLLIKQGIVPGIKLDLGVVPLAGTIGEGTTQGLDKLAERAAAFKKGGCGFAKWRCVLNIGTHTPSHLGMLENANVLARYASICQANGLVPIVEPEVLCDGEHDLARAQKVTEQVLAFVYKALADHHVYLEGTLLKPNMVTPGQSSASKASHEAIGLATVTALRRGVPAAVPGITFLSGGQSELDATANLNAINSVQLGKPWKLTFSYGRALQASVLKAWGGKDENIAAAQKTLLHRSKANGDASLGKYAGEDAAGAAAESLFVAKHSY”, the “soluble on expression in E. coli” value was “not soluble”. For “MAHHHHHHMFRSEAHFRMLANLRFLELQKLLLNRFQIFKNEEITVLKKGSMKTILYEWAEFLTKEQRATNMTHIPDEVLQSKRVADILRDDVECRWLVGRINVGAVSGVSGVSPPSPLSGAHLARDDAALSKVDQLHLDEYPDLFHYEYPQFPYDYYDKKKMSNFYSLMKFPYNDILNISKRIKREVSPPGGDAKEGEMRQMEEPRGGALESAGVDVVDDDFVSYSSNSYVYAPSEMETSKENYHE”, the “soluble on expression in E. coli” value was “not soluble”. With “MGSDKIHHHHHHMTNNRLERFAHNLDWNLLRTFVVVVEEGSITAAANRLLLQQPAVSMALKRLEQTIGQKLIDRRPGRFDLTEAGEKLHLQCRDIFAAVIRLPHVLETAGEEITGHLNIHAVSHAHNPAWDRKLGSFFRMHPKVTISMTVATTVDVLSAVERNIATMGLCDGIIPEGLNKSFHIRERYALYCGRGHRLFGVEGVVFHDLRGDPYIAFIADVLGGQHMNSVTAVRAVGSFGQQVRGVSCNVEEVMRLIAANVGIGMLPDHIASEAVAAGDLWQLPPYRDLPTTDVFRISNPNSILNPAEAAFLAHVADTQALDHCHHQQD” the “soluble on expression in E. coli” value was “not soluble”. In the case of “MTGNAKLIDRVSAINWNRLQDEKDAEVWDRLTGNFWLPEKVPVSNDIPSWGTLTAGEKQLTMRVFTGLTMLDTIQGTVGAVSLIPDALTPHEEAVLTNIAFMESVHAKSYSQIFSTLCSTAEIDDAFRWSEENRNLQRKAEIVLQSYRGDEPLKRKVASTLLESFLFYSGFYLPMYWSSRAKLTNTADMIRLIIRDEAVHGYYIGYKFQRGLALVDDVTRAELKDYTYELLFELYDNEVEYTQDLYDEVGLTEDVKKFLRYNANKALMNLGYEALFPRDETDVNPAILSALSPNAD”, the “soluble on expression in E. coli” value was “soluble”. With “MNRRVVIVTAVHGPSAPFLPEAYASLCAQELPDGWEWRWVIQEDGRTQDVRPHVPDDPRVVFHQGRHGRQGGPGVARTMALAHADGAYVKVLDADDRLTPGALARDLAALEADPSIGWATSRVLDLLPDGSTAGFPGDPAHGPIERGEVLDFWRANGFRAQVHPATLLVRRDLLLAVGGWMALPASEDTGLLLALNCVSRGWFTEDVGLLYRKWEGQETGQASHVDPAERDARMTVVEARARALASFGWRLPEGTGDFDHLEHHHHHH” the “soluble on expression in E. coli” value was “not soluble”. In the case of “MTMEKGMSSGEGLPSRSSQVSAGKITAKELETKQSYKEKRGGFVLVHAGAGYHSESKAKEYKHVCKRACQKAIEKLQAGALATDAVTAALVELEDSPFTNAGMGSNLNLLGEIECDASIMDGKSLNFGAVGALSGIKNPVSVANRLLCEGQKGKLSAGRIPPCFLVGEGAYRWAVDHGIPSCPPNIMTTRFSLAAFKRNKRKLELAERVDTDFMQLKKRRQSSEKENDSGTLDAVGAVVVDHEGNVAAAVSSGGLALKHPGRVGQAALYGCGCWAENTGAHNPYSTAVSTSGCGEHLVRTILARECSHALQAEDAHQALLETMQNKFISSPFLASEDGVLGGVIVLRSCRCSAEPDSSQNKQTLLVEFLWSHTTESMCVGYMSAQDGKAKTHISRLPPGAVAGQSVAIEGGVCRLESPVN”, the “soluble on expression in E. coli” value was “soluble”. With “MPNIDNVFSIYAGQLELLRQNGLIERTGEYICPICLNSFNKEQLNKLSMEDAPQASLGGKKIAITCKKCNNTCGHETDIHLVNFITYLEEQEFLPGSNRRVKIFDDETTINANLEVGNTKELKMIIPNKINNPKALTNHLSKLTVGGIIDIQNHPLKIDMKKVSTAILKNAYIILFARFGYSFLLNSFYDRIREQILNPAKHIIPESLWTKQTSISVKDGIYFSNSNVYRGFFIIYSLTKLRTHHFCICIPTPQVYFEAIAYYFREYKAGIPIYMMGSDGIDYFQNIDNIKALNKWLVNWSLGSPV” the “soluble on expression in E. coli” value was “not soluble”. For “MAHHHHHHMDALIGQLENVEPDNILKSAEEFRNDKSDVKVNLSIGVCCDENGQLHIFKSVLEAEKLVQQRYKEKPYMLSNGTKQFSLLTQKLIFGENSKYLKEKKICTVQAIGGTGAICIALQLFKMLHIREICVTNKPYVNHVNMITSNGIKVKYISFFEEKLVNINYDAFLNDLRKLEDGSVLLLQVSCYNPCSTNIEEIYFDEIANIVWKKKHVIVFDIAYQGFGSSNMNDDVSLVKKFEERGISFVVCQSFSKNMSLYGERAGALHIVCKSKEERKIVANNLRVITRKFYSSPTIHTNRIVCQLLEDEKLKSEWISDLRELSERVHKNRVLFFEKMEFYQKKFDLHYDWSVYKKQRGIFSFVPMFSAIYRKLKEHHVYIIDNGRINVSGITARNVDYVAEKVCLSLAEVKRCG”, the “soluble on expression in E. coli” value was “not soluble”. In the case of “MINLTSIASSLARVALSDSTKPTIDRALNVVSHIAGKVALQVNSSLLEQKGRLNERQQKGLAVILDALRGKEPVTNVETHEGGGRFNLARAAFDVASVVWERDKSMHNVMSFLGVSDSQGKMLFSLGKKLADAMAKPEPGYGKHNSEANYAFFSSNLKLNKLMSDIADQLINEIRQSNTDRVRRPTPGPSWRPESAQQQARPQTPPRTRPQANSTPPPPKAKPNAGAKRPSTQRPHNTPAADASSKVGDSGPAKPPVKPLYEHLGLSDMTADLSAVKTAYKKAALKNHPDKNAGNVAEATERFKVISNAFKILSDPELRKKYDNGLINEKGDEVQV”, the “soluble on expression in E. coli” value was “not soluble”. With “EIILNASAMFNHSNAKLALSIDKKLRKVIVTPDMHRVHHSVMVKETHSNFGFFLSVWDRWFGTYRAQPALGHNDVVIGVPEIREASEQRLDKLLTQPFRYREGKGKNVD” the “soluble on expression in E. coli” value was “not soluble”. With “MEQSFTADINEINITNGKLDFSDSSLTPKFSAGIYSLNGDITGLSSNEDSRAKIDLKGKVDKYAPVIIKGSVNPLSHDAFTDIDMLFNGIELTTFTPYSGKFAGYAIDKGKLSLGLNYKLSNNKLVAENNVTLDQLTLGEVVNSEEATSLPIKFALSLLKDSDGLEHHHHHH” the “soluble on expression in E. coli” value was “soluble”. With “MGHHHHHHSHLPTTNIGSFPQTTEIRHARASFKKGELSLADYEAAMKKEIEYVVRRQEELDLDVLVHGEAERNDMVEYFGELLDGFAFTKFGWVQSYGSRCVKPPVIYGDVTRPEPMTVRWSQYAQSLTNRVMKGMLTGPVTILQWSFVRNDIPRSTVCKQIGVALSDEVLDLEAAGIKVIQIDEPAIREGLPLKRADWDAYLQWAGEAFRLSSMGVQDDTQIHTHMCYSEFNDILPAIAALDADVITIETSRSDMELLTAFADFKYPNDIGPGVYDIHSPRVPTATEVEHLLRKALNVIPKERLWVNPDCGLKTRGWTETIDQLKVMVDVTKK” the “soluble on expression in E. coli” value was “not soluble”. In the case of “MSLKTRYVLSCLLLGSALSVSAQKMAVKSNLLSAANGALNAGVEYAFGPKSTFDLSGSIRPWKRTEGYVNKYWLIQPEYRYWTCQKFNGSFWGAYLNGAQFNVGGKKMPFGLFPWLKEHRYAGWLTGGGISYGYHIMLNRHWNIEVSVGVGYEYIDYKKYKCPDVCAELLEKGHYHYFGPSKASLSIVYIFNEGHHHHHH”, the “soluble on expression in E. coli” value was “not soluble”. For “MKKLPNIHPGEVLMEEFLIPMEITSYRLAKEIGIPQTRVSEITKGRRRITADTALRLSKYFGNSPKFWLGLQDDYDIEEESQLIAEELKAIKKVVV”, the “soluble on expression in E. coli” value was “not soluble”. For “MSEMPAREQMISAYSELVGLDPVSLGDGVAEVRLPMAAHLRNRGGVMHGGALFSLMDVTMGLACSSSHGFDRQSVTLECKINYIRAVADGEVRCVARVLHAGRRSLVVEAEVRQGDKLVAKGQGTFAQL”, the “soluble on expression in E. coli” value was “soluble”. In the case of “MKLIITSGGTTEPIDAVRGITNHSTGQLGKLITERFLQYHHDVTLVTTKTATKPLPNKRLRIIEVETVNDLMAALKDQVPHHDILIHSMAVSDYTPVYMTDLEQVSQADNLNCFLCEHNSEPKISSASDYQVLFLKKTPKVISYVKQWNPNIKLVGFKLLVNVPQEELIKVARASLAKNHADYILANDLVDIQTGMHKALLISNNEVASADTKEAIADLLYERMTKHD”, the “soluble on expression in E. coli” value was “not soluble”. In the case of “MSDNLPWKTWTPDDLAPPPAEFVPMVESEETIIEEAEPSLEQQLAQLQMQAHEQGYQAGIAEGRQQGHEQGYQEGLAQGLEQGLAEAKAQQAPIHARMQQLVSEFQTTLDALDSVIASRLMQMALEAARQVIGQTPTVDNSALIKQIQQLLQQEPLFSGKPQLRVHPDDLQRVDDMLGATLSLHGWRLRGDPTLHPGGCKVSADEGDLDASVATRWQELCRLAAPGVV”, the “soluble on expression in E. coli” value was “not soluble”. With “MLISLIVPIYNVEGFLPRCLDSIIKQEYQNLEIVLVNDGSTDQSGLICDQYAEKDERFIVFHKENGGVSSARNVGLNKANGNYIGFVDPDDWIEPNMINKLYELIIQHKADIAMCGYVKEDINGLLISRPVELSTKILNKEDTLNSILNPNDFRGFLCNKLFSVDLFRKKNLYLDEDIHFCEDLLFCCQAILESKQIVYDSTPYYHYIIHNNNASKSNFSFKKLTALNSLDNIINLLNDQKGIELEQYKNYYMHLNISLLMNGIHEDKIRRQDKERLKKNLYKFKINDLTSKFVKFSCVLARLNLNLYYFIWKNAKPSN” the “soluble on expression in E. coli” value was “not soluble”. For “MGHHHHHHSHMASATQSVSRLQSIVAGLKNAPSDQLINIFESCVRNPVENIMKILKGIGETFCQHYTQSTDEQPGSHIDFAVNRLKLAEILYYKILETVMVQETRRLHGMDMSVLLEQDIFHRSLMACCLEIVLFAYSSPRTFPWIIEVLNLQPFYFYKVIEVVIRSEEGLSRDMVKHLNSIEEQILESLAWSHDS”, the “soluble on expression in E. coli” value was “not soluble”. In the case of “MDAGYFRGANSEQDGRFSDKEKKLLKTMKFEPQLEQKIDLNRCNMDVIKPWITARVNDILGMEDDVVVEYILSQIDDKNLNPKLLQINVTGFLNARRAREFVGDLWNLLIEANASEDGIPASLVNQKMAEMKTNDRDEKGDDREDNDWTNRYKTLSNGRYTGPAREKAVRDDRIPARALSPRKTPPRRNASPGGDGGGGSPAARRGGSAGNRRRSPPRRGSPRRGSPRRDTRRSPPRRRGSPPARGGDRRDRREDRRPVRDEKEREEESRRREIERKKRHEEAELRQKAIASVAARAKSGSPRRRRSPSASKSPPPARRRRSPSQSKSPAPKRAKSRSKSPPAPARRRRSPSASKSPPPAPKRAKSRSKSPPARRRRSPSASKSPPAPRRRRSPSKSRSPAPKREIPPARRRRSPSASKSPPAPKRAKSRSKSPPAPRRRRSPSQSKSPAPRRRRSPSKSPQAPRRRRSPSGSKSRSPRRRRSPAAAPRRRQSPQRRRSPRRRRSPSSSSRSRSPPPPPRRPRQDSEQQAPVAVKSPEMKKRRPNDTDSDVSVDSEAEEERRRKKAKKEKKAAKKHKKEKKSKKHRKRRSPSASESGSESD”, the “soluble on expression in E. coli” value was “soluble”.
